Laboratory results published in PMC11686370.
Where “and” joins values, the source holds several entries; their conditions need not be identical. Equal entries are not always repeated. Where two headings read alike, the source gives them in different places.

Tests used:
Test in all cases: SPR
[1] = target: his-tagged knob domain protein of HAdV-B7 fiber (Human adenovirus B7)
[2] = target: ALCAM protein, commercially available (Sino, Cat. No. 10045-H08H-100) (human) (UniProt Q13740)
[3] = target: his-tagged knob domain protein of HAdV-B7 fiber (Human adenovirus B7); remark: listed apart in the source

DSG-2 protein (MCE, Cat. No. HY-P77917) (from UniProt Q14126 50-609) (receptor)
Kd [1]: 2.61 µM

his-tagged knob domain protein of HAdV-B7 fiber (domain or fragment)
Kd [2]: 700 nM and 849 nM | Kd [1]: 3.47 µM

B1: ALCAM protein, commercially available (Sino, Cat. No. 10045-H08H-100) (receptor)
chain: WYTVNSAYGDTIIIPCRLDVPQNLMFGKWKYEKPDGSPVFIAFRSSTKKSVQYDDVPEYKDRLNLSENYTLSISNARISDEKRFVCMLVTEDNVFEAPTIVKVFKQPSKPEIVSKALFLETEQLKKLGDCISEDSYPDGNITWYRNGKVLHPLEGAVVIIFKKEMDPVTQLYTMTSTLEYKTTKADIQMPFTCSVTYYGPSGQKTIHSEQAVFDIYYPTEQVTIQVLPPKNAIKEGDNITLKCLGNGNPPPEEFLFYLPGQPEGIRSSNTYTLTDVRRNATGDYKCSLIDKKSMIASTAITVHYLDLSLNPSGEVTRQIGDALPVSCTISASRNATVVWMKDNIRLRSSPSFSSLHYQDAGNYVCETALQEVEGLKKRESLTLIVEGKPQIKMTKKTDPSGLSKTIICHVEGFPKPAIQWTITGSGSVINQTEESPYINGRYYSKIIISPEENVTLTCTAENQLERTVNSLNVSAISIPEHDEADEISDENREKVNDQAK
Kd [3]: 961 nM
